The values below are quoted from earlier work in article PMC3433420.

Read-outs that look alike come from different tables or passages of the source.

Among the targets are SH2D3A (Homo sapiens) (UniProt Q9BRG2); VAV2 (Homo sapiens) (UniProt P52735); VAV1 (Homo sapiens) (UniProt P15498); VAV3 (Homo sapiens) (UniProt Q9UKW4); BTK (Homo sapiens) (UniProt Q06187).
Common to all, as to conditions: cited from earlier work
Data set [1] concerns the target TENC1 (Homo sapiens) (UniProt Q63HR2).
Data set [2] has the same target. The source holds these as a separate data set.

Chain of TENC1 (Homo sapiens) (Q63HR2 1135-1252): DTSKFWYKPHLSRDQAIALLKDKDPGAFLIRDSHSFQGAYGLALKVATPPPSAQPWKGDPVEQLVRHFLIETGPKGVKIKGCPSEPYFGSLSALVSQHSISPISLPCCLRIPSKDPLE
Chain of VAV2 (Homo sapiens) (P52735 668-772): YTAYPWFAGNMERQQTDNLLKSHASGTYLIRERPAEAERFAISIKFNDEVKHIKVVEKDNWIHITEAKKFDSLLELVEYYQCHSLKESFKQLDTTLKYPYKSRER
Chain of VAV1 (Homo sapiens) (P15498 666-770): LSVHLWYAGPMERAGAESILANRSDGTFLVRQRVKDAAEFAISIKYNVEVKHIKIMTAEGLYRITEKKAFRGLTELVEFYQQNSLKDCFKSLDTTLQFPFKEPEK
Chain of SH2D3A (Homo sapiens) (Q9BRG2 10-119): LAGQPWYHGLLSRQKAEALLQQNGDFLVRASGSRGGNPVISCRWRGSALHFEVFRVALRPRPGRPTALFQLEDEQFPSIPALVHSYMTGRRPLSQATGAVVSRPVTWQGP
Chain of BTK (Homo sapiens) (Q06187 276-382): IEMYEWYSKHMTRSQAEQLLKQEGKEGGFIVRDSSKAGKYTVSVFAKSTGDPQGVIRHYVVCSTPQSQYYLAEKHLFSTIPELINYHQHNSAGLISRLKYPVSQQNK
Chain of VAV3 (Homo sapiens) (Q9UKW4 667-771): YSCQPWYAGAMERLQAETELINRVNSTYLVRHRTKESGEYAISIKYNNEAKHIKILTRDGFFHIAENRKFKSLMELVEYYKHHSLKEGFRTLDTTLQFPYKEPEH

For …pYLIPQQGFd, the apparent Kd (screen) with SH2D3A (Homo sapiens) was 2 µM; with TENC1 (Homo sapiens) [1], 2 µM; with VAV2 (Homo sapiens) it was 0.085 µM.
In the case of …pYLVPQQGF, the apparent Kd (screen) in the data set with VAV1 (Homo sapiens) is 2 µM.
Consider …pYWDQDPPE, for which the apparent Kd (screen) with VAV3 (Homo sapiens) is 1.12 µM; with TENC1 (Homo sapiens) [2] it was 0.843 µM; with BTK (Homo sapiens), 2 µM.
